# PMC7935965, “RNF8 ubiquitinates RecQL4 and promotes its dissociation from DNA double strand breaks” (Oncogenesis, 2021)
# T1: recombinant Flag-RecQL4 (human, UniProt O94761 1-1208)
# T1 construct: also called purified Flag-RecQL4; source: E. coli (BL21 in the results; Rosetta (DE3) in the methods), IPTG-induced, purified
# T1 sequence (looked up): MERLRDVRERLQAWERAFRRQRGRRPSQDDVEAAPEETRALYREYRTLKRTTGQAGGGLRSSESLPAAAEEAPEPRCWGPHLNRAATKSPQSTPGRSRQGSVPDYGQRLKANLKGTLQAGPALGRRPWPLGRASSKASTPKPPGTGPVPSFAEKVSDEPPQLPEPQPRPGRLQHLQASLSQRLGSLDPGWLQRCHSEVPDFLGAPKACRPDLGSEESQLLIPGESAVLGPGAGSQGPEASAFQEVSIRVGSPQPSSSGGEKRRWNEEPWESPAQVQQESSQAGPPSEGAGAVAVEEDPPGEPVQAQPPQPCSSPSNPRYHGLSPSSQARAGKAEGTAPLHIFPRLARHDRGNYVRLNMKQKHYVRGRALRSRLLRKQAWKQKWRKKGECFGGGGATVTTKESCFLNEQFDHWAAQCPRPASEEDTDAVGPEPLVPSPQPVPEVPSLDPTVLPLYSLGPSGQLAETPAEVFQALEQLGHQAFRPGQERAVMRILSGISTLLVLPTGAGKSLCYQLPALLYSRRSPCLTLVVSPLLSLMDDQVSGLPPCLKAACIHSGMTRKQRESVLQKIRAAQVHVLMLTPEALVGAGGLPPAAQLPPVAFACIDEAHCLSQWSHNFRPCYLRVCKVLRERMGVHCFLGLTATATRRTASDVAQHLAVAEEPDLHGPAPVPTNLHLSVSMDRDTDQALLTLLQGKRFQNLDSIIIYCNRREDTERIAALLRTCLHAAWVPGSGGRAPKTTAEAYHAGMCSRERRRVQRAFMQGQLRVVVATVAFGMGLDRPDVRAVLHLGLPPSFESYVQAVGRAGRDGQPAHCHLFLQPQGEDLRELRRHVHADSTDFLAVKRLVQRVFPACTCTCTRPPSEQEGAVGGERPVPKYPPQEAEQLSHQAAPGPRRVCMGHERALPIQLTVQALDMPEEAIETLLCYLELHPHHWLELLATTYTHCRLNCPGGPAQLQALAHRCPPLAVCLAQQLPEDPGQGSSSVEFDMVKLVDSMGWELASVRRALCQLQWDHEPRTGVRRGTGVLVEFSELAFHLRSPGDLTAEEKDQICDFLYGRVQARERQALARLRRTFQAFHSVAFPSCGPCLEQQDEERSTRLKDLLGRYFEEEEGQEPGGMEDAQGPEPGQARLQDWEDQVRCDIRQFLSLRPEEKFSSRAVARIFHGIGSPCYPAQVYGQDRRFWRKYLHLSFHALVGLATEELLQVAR
# Experiments:
# recombinant Flag-RecQL4 [1] = molecular target: T1, recombinant Flag-RecQL4; test: pull-down; Flag-RecQL4 immobilised on M2 beads at 4 °C overnight, GST fusion proteins added at 4 °C for 4 h; GST-RNF8 with increasing input of GST-WRAP53β; western blot; settings: both partners purified
# recombinant Flag-RecQL4 [2] = molecular target: T1, recombinant Flag-RecQL4; test: pull-down; GST fusion protein immobilised on glutathione Sepharose 4B at 4 °C overnight, incubated with purified Flag-RecQL4 at 4 °C for 4 h; western blot; settings: both partners purified
# Chain of GST-WRAP53β (Q9BUR4 whole entry, change not shown, the tested form may be a part): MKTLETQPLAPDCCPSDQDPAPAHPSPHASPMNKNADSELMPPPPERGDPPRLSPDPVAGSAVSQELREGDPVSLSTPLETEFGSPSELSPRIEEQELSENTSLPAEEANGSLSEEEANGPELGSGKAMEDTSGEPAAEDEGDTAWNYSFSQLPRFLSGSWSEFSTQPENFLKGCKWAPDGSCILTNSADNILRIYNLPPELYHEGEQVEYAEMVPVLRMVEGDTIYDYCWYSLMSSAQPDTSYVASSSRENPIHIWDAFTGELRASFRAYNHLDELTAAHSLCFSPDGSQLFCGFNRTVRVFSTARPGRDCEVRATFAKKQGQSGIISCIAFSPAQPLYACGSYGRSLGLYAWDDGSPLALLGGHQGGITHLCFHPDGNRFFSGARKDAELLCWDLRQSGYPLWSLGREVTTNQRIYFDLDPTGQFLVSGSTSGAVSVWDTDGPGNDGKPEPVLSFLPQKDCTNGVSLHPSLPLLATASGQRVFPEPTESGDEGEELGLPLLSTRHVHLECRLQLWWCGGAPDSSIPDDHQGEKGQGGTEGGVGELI
Binder,binding result (recombinant Flag-RecQL4 [1]),binding result (recombinant Flag-RecQL4 [2])
"GST-RNF8 (natural protein, UniProt O76064-1 1-485, looked up, RNF8; also called purified recombinant GST-RNF8; source: E. coli BL21, purified (GST beads)) MGEPGFFVTGDRAGGRSWCLRRVGMSAGWLLLEDGCEVTVGRGFGVTYQLVSKICPLMISRNHCVLKQNPEGQWTIMDNKSLNGVWLNRARLEPLRVYSIHQGDYIQLGVPLENKENAEYEYEVTEEDWETIYPCLSPKNDQMIEKNKELRTKRKFSLDELAGPGAEGPSNLKSKINKVSCESGQPVKSQGKGEVASTPSDNLDPKLTALEPSKTTGAPIYPGFPKVTEVHHEQKASNSSASQRSLQMFKVTMSRILRLKIQMQEKHEAVMNVKKQTQKGNSKKVVQMEQELQDLQSQLCAEQAQQQARVEQLEKTFQEEEQHLQGLEIAQGEKDLKQQLAQALQEHWALMEELNRSKKDFEAIIQAKNKELEQTKEEKEKMQAQKEEVLSHMNDVLENELQCIICSEYFIEAVTLNCAHSFCSYCINEWMKRKIECPICRKDIKSKTYSLVLDNCINKMVNNLSSEVKERRIVLIRERKAKRLF",binds,
"GST-WRAP53β (natural protein, WRAP53β; also called purified recombinant GST-WRAP53β; source: E. coli, purified (GST beads)) not shown",,binds
